Measured values reported in patent publication US10358663B2, “Method of production of 2,4-dihydroxybutyric acid” (ADISSEO FRANCE S.A.S., priority 2010, dated 2019).

Assays:
Assay type in all cases: biochemical, Metallosphaera sedula
Conditions in all cases: other: malate semialdehyde, pH 7.5, 30° C.
[1] = substrate: O=CC[C@H](O)C(=O)O; experiment: Malate semialdehyde reductase assay, Ms-SSR N43H
Experimental: (§1) Test for Malate Semialdehyde Reductase Activity: Reaction: (L)-Malate semialdehyde+NAD(P)H→(L)-2,4-dihydroxybutyric acid+NAD(P)
(§2) The assay mixture contained 200 mM Hepes (pH 7.5), 50 mM KCl, 5 mM MgCl2, 0.24 mM NADH or NADPH, and appropriate amounts of purified enzyme. Reactions were started by adding 10 mM (L)-malate semialdehyde (malate semialdehyde was prepared freshly for each test, see Example 4). Enzymatic assays were carried out at 30° C. in 96-well flat bottomed microtiter plates in a final volume of 250 μL. The reactions were followed by the characteristic absorption of NAD(P)H at 340 nm in a microplate reader (BioRad 680XR).
(§3) Site-directed mutagenesis was carried out using the oligonucleotide pairs listed in Table 8 and the pMs-SSR plasmid as the template. Point mutations to change the amino acid sequences were introduced by PCR (Phusion 1U, HF buffer 20% (v/v), dNTPs 2.5 mM, direct and reverse primers 1 μM each, template plasmid 200 ng, water). When possible, plasmids created by PCR contained new restriction sites (introduced using silent mutations) in addition to the functional mutation to facilitate identification of mutated clones. The PCR products were digested by DpnI at 37° C. for 1 h to remove template DNA, and transformed into NEB 5-alpha competent E. coli cells (NEB). […]

[2] = substrate: O=CC[C@H](O)C(=O)O; experiment: Malate semialdehyde reductase assay, Ms-SSR wild type
Experimental: as §1, §2

[3] = substrate: O=CC[C@H](O)C(=O)O; experiment: Malate semialdehyde reductase assay, Ms-SSR H39R
Experimental: as §1, §2, §3

[4] = substrate: O=CC[C@H](O)C(=O)O; experiment: Malate semialdehyde reductase assay, Ms-SSR H39R N43H
Experimental: as §1, §2, §3

B1: Metallosphaera sedula succinic semialdehyde reductase Ms-SSR variant N43H, SEQ ID NO: 227 (Metallosphaera sedula DSM 5348; N43H) (protein)
chain: MKAAVLHTYKEPLSIEDVNISQPKAGEVKIKVKATGLCHSDVHVFEGKTPVPPPVVAGHEISGIVEEVGPGVTRVKPGDRVISAFIHPCGKCGNCVAGKENLCETFSQVRLKGVMPDGTSRLSKDGKEIRTFLGGGFAEYAIVGENALTRVPEDMDLEKVAVLGCAGLTGYGAISSSKIEPGDTVAVIGVGGVGLSTIQLLRASGAGRIIAVGTKKWKLDRAMELGATDVVNSKEIDPVKAIKEITGGGPQVVIEAGGNEDTIHMALDSVRIGGKVVLVGLPPATAMIPIRVASIVRGGIEVVGNYGGRPRVDMPKLLELVRQGRYDPSRLVTGRFRLEEINEAVKMLEEGEAIRSLIIP
B1 was tested, and the Km [1] was 2500 µM.

B2: Metallosphaera sedula succinic semialdehyde reductase Ms-SSR, wild type, SEQ ID NO: 76 (Metallosphaera sedula DSM 5348) (protein)
chain: MKAAVLHTYKEPLSIEDVNISQPKAGEVKIKVKATGLCHSDVNVFEGKTPVPPPVVAGHEISGIVEEVGPGVTRVKPGDRVISAFIHPCGKCGNCVAGKENLCETFSQVRLKGVMPDGTSRLSKDGKEIRTFLGGGFAEYAIVGENALTRVPEDMDLEKVAVLGCAGLTGYGAISSSKIEPGDTVAVIGVGGVGLSTIQLLRASGAGRIIAVGTKKWKLDRAMELGATDVVNSKEIDPVKAIKEITGGGPQVVIEAGGNEDTIHMALDSVRIGGKVVLVGLPPATAMIPIRVASIVRGGIEVVGNYGGRPRVDMPKLLELVRQGRYDPSRLVTGRFRLEEINEAVKMLEEGEAIRSLIIP
B2 was tested, and the Km [2] was 1100 µM.

B3: Metallosphaera sedula succinic semialdehyde reductase Ms-SSR variant H39R, SEQ ID NO: 225 (Metallosphaera sedula DSM 5348; H39R) (protein)
chain: MKAAVLHTYKEPLSIEDVNISQPKAGEVKIKVKATGLCRSDVNVFEGKTPVPPPVVAGHEISGIVEEVGPGVTRVKPGDRVISAFIHPCGKCGNCVAGKENLCETFSQVRLKGVMPDGTSRLSKDGKEIRTFLGGGFAEYAIVGENALTRVPEDMDLEKVAVLGCAGLTGYGAISSSKIEPGDTVAVIGVGGVGLSTIQLLRASGAGRIIAVGTKKWKLDRAMELGATDVVNSKEIDPVKAIKEITGGGPQVVIEAGGNEDTIHMALDSVRIGGKVVLVGLPPATAMIPIRVASIVRGGIEVVGNYGGRPRVDMPKLLELVRQGRYDPSRLVTGRFRLEEINEAVKMLEEGEAIRSLIIP
Work on B3 yielded a Km [3] of 500 µM.

B4: Metallosphaera sedula succinic semialdehyde reductase Ms-SSR variant H39R N43H, SEQ ID NO: 81 (Metallosphaera sedula DSM 5348; H39R/N43H) (protein)
chain: MKAAVLHTYKEPLSIEDVNISQPKAGEVKIKVKATGLCRSDVHVFEGKTPVPPPVVAGHEISGIVEEVGPGVTRVKPGDRVISAFIHPCGKCGNCVAGKENLCETFSQVRLKGVMPDGTSRLSKDGKEIRTFLGGGFAEYAIVGENALTRVPEDMDLEKVAVLGCAGLTGYGAISSSKIEPGDTVAVIGVGGVGLSTIQLLRASGAGRIIAVGTKKWKLDRAMELGATDVVNSKEIDPVKAIKEITGGGPQVVIEAGGNEDTIHMALDSVRIGGKVVLVGLPPATAMIPIRVASIVRGGIEVVGNYGGRPRVDMPKLLELVRQGRYDPSRLVTGRFRLEEINEAVKMLEEGEAIRSLIIP
Work on B4 yielded a Km [4] of 400 µM.
